3 molecules from patent publication US20150315607A1 (ACADEMIA SINICA, published 2015) can be followed below.

T1: CYN1-EAT1 (Oryza sativa (rice), UniProt Q7X8R0 1-464)
T1 construct: BiFC construct expressed in rice protoplasts
T1 sequence: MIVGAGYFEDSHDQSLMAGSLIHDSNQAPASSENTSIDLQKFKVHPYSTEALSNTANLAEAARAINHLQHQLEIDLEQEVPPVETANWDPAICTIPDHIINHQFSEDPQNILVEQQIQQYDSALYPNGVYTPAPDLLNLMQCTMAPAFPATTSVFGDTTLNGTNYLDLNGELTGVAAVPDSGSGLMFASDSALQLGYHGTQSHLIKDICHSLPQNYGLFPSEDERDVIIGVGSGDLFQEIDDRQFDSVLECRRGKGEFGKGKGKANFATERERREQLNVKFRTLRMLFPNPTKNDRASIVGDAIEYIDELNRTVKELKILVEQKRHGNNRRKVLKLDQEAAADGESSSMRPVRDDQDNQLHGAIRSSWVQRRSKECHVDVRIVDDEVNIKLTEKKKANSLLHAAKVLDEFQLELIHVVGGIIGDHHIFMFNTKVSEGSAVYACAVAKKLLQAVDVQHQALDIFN

B1: ETERNAL TAPETUM 1 (EAT1) (other)
chain: T1 sequence
B2: transcription factor bHLH142 (other)
chain: MYHPQCELLMPLESLEMDVGQSHLAAAVAAAMPGELNFHLLHSLDAAAAAASSTAASASSQPTVDYFFGGADQQPPPPAAMQYDQLAAPHHHQTVAMLRDYYGGHYPPAAAAAAATEAYFRGGPRTAGSSSLVFGPADDESAFMVGPFESSPTPRSGGGRKRSRATAGFHGGGPANGVEKKEKQRRLRLTEKYNALMLLIPNRTKEDRATVISDAIEYIQELGRTVEELTLLVEKKRRRREMQGDVVDAATSSVVAGMDQAAESSEGEVMAAAAMGAVAPPPRQAPIRSTYIQRRSKETFVDVRIVEDDVNIKLTKRRRDGCLAAASRALDDLRLDLVHLSGGKIGDCHIYMFNTKIHSGSPVFASAVASRLIEVVDEY
notes: Rice bHLH transcription factor as named in general statements and as 35S-driven effector in the EAT1pro-Luc protoplast assay; also called Os01g0293100
B3: NYN1-bHLH142 (other, not shown: large carriers)
chain: B2 chain
notes: BiFC construct expressed in rice protoplasts

One assay addresses TAPETUM …ON …ON (TDR1) (Oryza sativa (rice), UniProt Q6YUS3 1-552). Kind of assay: cell-based or functional assay.
In the assay “ETERNAL TAPETUM 1 (EAT1)” the target is B1. Kind of assay: yeast two-hybrid and BiFC (FIG. 13).
For a further assay, the target named is T1, CYN1-EAT1. Kind of assay: BiFC in rice protoplasts.

Bounds are passed on as bounds.

Protocol for CYN1-EAT1: Next, the tested genes were introduced into pSAT5-DEST_CYN1 and pSAT4(A)-DEST_NYN1. Ballistic bombardment-mediated transient transformation in rice protoplasts was carried out following a previously published protocol³⁶. Florescence images were photographed on a LSM 780 Plus ELYRA S.1 confocal microscope with Plan-Apochromat 40×/1.4 oil objective lens (Zeiss, Germany).

On to B1, for which the “Luc expression from the EAT1 promoter (EAT1pro-Luc) with bHLH142, TDR1 and additional EAT1, transient assay in rice protoplasts” value with TAPETUM …ON …ON (TDR1) is 18 fold.

As for B2, in the assay with TAPETUM …ON …ON (TDR1), the “Luc expression from the EAT1 promoter (EAT1pro-Luc), transient assay in rice protoplasts” value was not above 30 fold. Besides, in the assay with ETERNAL TAPETUM 1 (EAT1), the binding result is “no binding”.

Take B3: the binding result with CYN1-EAT1 is recorded as “no binding”.
